Results on three molecules are retold here after publication PMC6640040 (Nature, 2016).

Holding throughout (assay): pull-down
In test [1] the target is ClpP(6His)^TRAP (B. subtilis, UniProt P80244 1-197, Ser98Ala).
The target of test [2] is wild-type ClpP(6His) (B. subtilis, UniProt P80244 1-197).
Test [3] has as its target T1, MecA (B. subtilis, UniProt P37958 1-218).
T1 sequence (looked up): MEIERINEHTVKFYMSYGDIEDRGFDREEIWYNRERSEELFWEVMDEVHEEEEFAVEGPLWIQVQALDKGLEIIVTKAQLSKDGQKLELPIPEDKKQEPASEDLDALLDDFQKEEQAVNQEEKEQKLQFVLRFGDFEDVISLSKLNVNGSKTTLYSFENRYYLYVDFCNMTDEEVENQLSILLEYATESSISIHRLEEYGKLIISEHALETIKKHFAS

Where a chain is given by its changes, count along the chain named.

B1: endogenous ClpP (enzyme)
chain: not shown
With B1, the binding result in test [1] and in test [2] was “binds” each time.

B2: ClpC^NTD(1–150) (domain or fragment, B. subtilis, UniProt P37571 1-150, looked up)
chain: MMFGRFTERAQKVLALAQEEALRLGHNNIGTEHILLGLVREGEGIAAKALQALGLGSEKIQKEVESLIGRGQEMSQTIHYTPRAKKVIELSMDEARKLGHSYVGTEHILLGLIREGEGVAARVLNNLGVSLNKARQQVLQLLGSNETGSS
Consider B2, for which the binding result in test [3] is on record as “binds”.

B3: ClpC NTD^EA mutant (domain or fragment, B. subtilis, UniProt P37571 1-150, looked up)
chain: B2 chain with E32A, E106A
As for B3, the binding result in test [3] is “binds”.
